# Laboratory results as given in the supplement of paper PMC10126150.
# ± gives the standard deviation of the averaged measurements.
# Tested on: ATP
# Assay: switch fluorescence ratio, 500 uM ATP over buffer (Cy3 cluster intensity, sum of 5 cycles each) (fold (ratio)); higher = stronger signal-on switching upon ATP binding; sequences stand for … in TCGTCGGCAGCGTCAGATGTGTATAAGAGACAGTTTTTTTTTTTTTTTTTTTTTTTTT…TC
# Settings: aptamer strand: ATP DNA aptamer (quencher-CACCTGGGGGAGTATTGCGGAGGAAGG + anchor), 100 nM annealed; ATP concentration: 500 uM
# Method in brief: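 For every switch-domain sequence, the fluorescence ratio is the mean of per-cluster values, each being summed target-cycle Cy3 intensity over summed buffer-cycle Cy3 intensity. Clusters outside 100-1000 RFU were excluded. On a modified Illumina MiSeq flow-cell, the Cy3-labelled switching-strand clusters were annealed to 100 nM quencher-labelled ATP aptamer, imaged in selection buffer and then after 15 min with 500 uM ATP at 22 °C. Five such cycles were run, with NaOH stripping and re-annealing between them.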
# 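Further: ATP exposure 15 min at 22 °C before imaging.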
row,Sequence,switch fluorescence ratio
1,CTGGGTATAG,1.02 ± 0.032
2,GGATTGAGGT,1.02 ± 0.032
3,GGGCTTAGAG,1.012 ± 0.007
4,CGCGGGGGAT,1.03 ± 0.067
5,TTTATCCGCC,1.77 ± 0.21
6,CGGCTGGGCT,0.988 ± 0.024
7,AACGGAGTGC,1 ± 0.045
8,ATAGGGTCGG,1.02 ± 0.063
9,ATCTTTATGT,1.03 ± 0.017
10,TCGCGCTATT,1.34 ± 0.39
11,TCCGGGGTGT,1.26 ± 0.44
12,CAAGCTTTCG,1.06 ± 0.048
13,GAGGTTCAGT,0.989 ± 0.011
14,GGGGTCCGGT,1.06 ± 0.14
15,CGTAGACGAG,1.03 ± 0.016
16,GGGATTTGGG,0.9745 ± 0.0088
17,ATTACAATAG,1.095 ± 0.0077
18,CATGCCAGTG,1.049 ± 0.0013
19,TTCTGGGGAG,1.03 ± 0.051
20,CGTGGGTGGT,1.0181 ± 0.00048
21,CATGAATGGT,0.962 ± 0.022
22,TTAGCTTGGT,0.999 ± 0.043
23,TTCTAGGCGC,0.9972 ± 0.0073

row,Sequence,switch fluorescence ratio
1,CCATTACGTT,1.04 ± 0.05
2,AACTTTTTAA,1.01 ± 0.012
3,TCCCGGGAAA,1.04 ± 0.082
4,CTTGGAGGGA,1.02 ± 0.03
5,ATCACAATTT,1.04 ± 0.017
6,ACAGTGCCGG,1.02 ± 0.055
7,CCGGGCGAGC,1.08 ± 0.059
8,ACACGGGTGC,1.74 ± 0.062
9,ACAAAACTC,1.27 ± 0.37
10,TAATTACCTC,1.04 ± 0.013
11,AATAAGACGG,1.011 ± 0.0061
12,CTGAGCTGCA,1.12 ± 0.036
13,GGCAATCCCA,1.03 ± 0.012
14,GCCAACGGGG,1 ± 0.028
15,AAACTTAATA,1.14 ± 0.16
16,AAATGTGACG,1.03 ± 0.028
17,TTGGTGGGTA,0.988 ± 0.013
18,TATTAAGTAT,1.01 ± 0.019
19,ACAGCTGAAG,1.002 ± 0.0066
20,ATGTGGTAAT,0.984 ± 0.024
21,AGGGTCGGAA,1.02 ± 0.018
22,GCATGATAAC,1.04 ± 0.02
23,AGGAGATTAG,0.978 ± 0.029

row,Sequence,switch fluorescence ratio
1,CCCCTGACAA,1.79 ± 0.059
2,GGGTGAGAGG,0.9944 ± 0.0075
3,AAATGAAGGT,1.01 ± 0.013
4,TGAGCCTGCT,0.98 ± 0.012
5,ATGCAACCAT,1.01 ± 0.013
6,AAAATCGGTG,1.01 ± 0.068
7,AATAATCGAG,1.027 ± 0.0093
8,ATGGGGCATA,1.01 ± 0.045
9,CCAGAACGAA,1.037 ± 0.0099
10,AATGTCATTT,1 ± 0.018
11,TGGGCGCATT,1.68 ± 0.88
12,GGGGACGGGA,0.989 ± 0.024
13,AGGGGGAGAG,0.969 ± 0.013
14,TCGTTTATAT,1.01 ± 0.04
15,TTAGCTGTGC,1.02 ± 0.067
16,GTTGAACGGT,1.1 ± 0.053
17,GTATAAGTTT,0.998 ± 0.017
18,TCTTACAATA,1.14 ± 0.091
19,CCGGGGGATT,1.4 ± 0.49
20,GTATGTAGTG,0.966 ± 0.023
21,TTCTTGGGGT,0.975 ± 0.056
22,TATTAGATTC,0.9656 ± 0.0023
23,TAAAGACCGA,1.08 ± 0.048

row,Sequence,switch fluorescence ratio
1,AGGAGTACCA,1.04 ± 0.015
2,GACCCGATTA,1.02 ± 0.034
3,AGGAATAAAC,1.02 ± 0.013
4,GCCCTTTCGT,1.032 ± 0.0021
5,ATCGTTATCA,0.991 ± 0.056
6,GATTAGGGGG,1.02 ± 0.043
7,AAAACACTGG,1.06 ± 0.053
8,TGGGAACTTG,0.991 ± 0.028
9,TCAAGCCATT,0.989 ± 0.022
10,TTTTCGCCGA,1.03 ± 0.057
11,TTTCATATGG,0.994 ± 0.024
12,GCGGGGGTG,1.01 ± 0.013
13,GAATTTGGGA,0.997 ± 0.013
14,CCTTTAGGGT,0.9997 ± 0.0014
15,CACATTGTAG,1.007 ± 0.0086
16,ATAGAGTGGG,0.966 ± 0.019
17,TAATGTATTA,1.01 ± 0.027
18,GTAAGGAGGG,0.981 ± 0.032
19,TTTGTTTTGC,0.971 ± 0.019
20,TAGCGTAAAT,0.9913 ± 0.0049
21,ATACTTAGGT,1.07 ± 0.1
22,AACATTGGGG,1.02 ± 0.024
23,GTGGTGGGTA,0.947 ± 0.073

row,Sequence,switch fluorescence ratio
1,ATCTTGTTGG,1.13 ± 0.27
2,GGTTTTCGGG,0.969 ± 0.035
3,GGGGTAATGC,1.34 ± 0.18
4,CGGGGGGGAG,1.01 ± 0.067
5,ATTATAAGGG,1.02 ± 0.056
6,AACTGTTGTA,0.986 ± 0.0024
7,TACGAGCCAC,1.31 ± 0.032
8,TGCATGATCG,1.02 ± 0.033
9,TCTAAATAGG,0.9908 ± 0.0032
10,GTTGAAAATT,0.99 ± 0.021
11,TTTATCGAGC,1.02 ± 0.027
12,GGATATGTGT,0.991 ± 0.016
13,TTTTTGGTAG,1 ± 0.042
14,TGGGAATTTC,1.035 ± 0.0034
15,GGGCCCGCTG,0.987 ± 0.049
16,TGCTATGGGC,1.01 ± 0.017
17,TTAGACTCTG,1.05 ± 0.071
18,TGGCGTTAGG,0.977 ± 0.019
19,TGTGAAGGTT,0.986 ± 0.054
20,GTTGATATAG,1 ± 0.021
21,TTTCGGGATT,1 ± 0.012
22,CTTTTCTTGG,0.991 ± 0.03
23,TTGTGCATTT,1.01 ± 0.011

row,Sequence,switch fluorescence ratio
1,AATACAGTGA,0.9986 ± 0.00012
2,TTTCTTGGTT,0.991 ± 0.016
3,GCGGAGGGTG,1.028 ± 0.0092
4,GGTTAGGGTG,1.047 ± 0.007
5,TAAGGTACTG,0.984 ± 0.086
6,CGGGCAGGTT,1.11 ± 0.18
7,TTCGGATATT,1.13 ± 0.23
8,TTTTCTTTT,1.02 ± 0.024
9,TTTTAGTGCT,1.006 ± 0.0065
10,GGGGGCGTCA,1.02 ± 0.017
11,GGCTAATTTT,1.02 ± 0.011
12,AGAATATGGG,0.994 ± 0.011
13,CCCGTGCCAG,1.02 ± 0.025
14,GAGAGTATAT,1.01 ± 0.012
15,TGTGCACATT,1.02 ± 0.024
16,ACTGAGGGGG,1 ± 0.01
17,GGTCAATCTA,0.946 ± 0.045
18,TTGGGGTCTT,1.02 ± 0.043
19,GACGAGTTTT,1.01 ± 0.022
20,GGGCCTGATG,1.01 ± 0.012
21,TCTTAGGCGC,1.03 ± 0.029
22,TAAGAAGTCC,0.977 ± 0.045
23,CAAAAAAATG,0.999 ± 0.03

row,Sequence,switch fluorescence ratio
1,CCGGAACGGT,0.986 ± 0.031
2,GGCAGCGGGG,0.991 ± 0.019
3,CTGTTTACTG,0.987 ± 0.014
4,GGTTAGTACA,1.01 ± 0.041
5,AGGGCCAAGT,0.997 ± 0.011
6,CGTTTAAGTA,0.973 ± 0.019
7,GGAATCGGTG,0.996 ± 0.04
8,CCATTTTGTT,0.984 ± 0.015
9,CGACCTTTTC,1.4 ± 0.34
10,TTTGGTTAGC,1.01 ± 0.02
11,AGGTTTGCGT,1.01 ± 0.021
12,CCAGACGCGG,1.14 ± 0.051
13,GAAGTTGGGA,0.9857 ± 0.0095
14,CAAACGCGCG,0.997 ± 0.045
15,TAAAGTACGT,1.11 ± 0.021
16,GGGGTATATG,0.995 ± 0.027
17,TCTCAAATTT,0.975 ± 0.029
18,CGATAGGCAA,1.66 ± 0.9
19,CAGTATGTTT,0.974 ± 0.044
